Data published in patent publication US20230416396A1 (Regeneron, published 2023).
Read-outs that look alike come from different tables or passages of the source.

Experiments:
human 4-1BB on cells [1] = target: T1, human 4-1BB on cells (human, UniProt Q07011 24-255); assay: cell-based or functional assay
human 4-1BB on cells [2] = target: T1, human 4-1BB on cells; assay: cell-based or functional assay; remark: listed apart in the source
[3] = target: T2, human CD38 endogenously expressed on MOLP8 cells (human, UniProt P28907 1-300); assay: flow cytometry on MOLP8 cells (endogenous hCD38), APC anti-human secondary
T2 construct: whole, on cells; also called hCD38
Protocol: (§1) The ability of the multispecific antigen binding molecules to bind cells was assessed using flow cytometry. Cell lines were chosen to determine the ability of both the anti-CD38 and anti-4-1BB arms to bind their targets. […] Binding was detected by using a labeled secondary antibody and measuring fluorescence on a flow cytometer.
HEK293 cells were lifted with trypsin, washed and resuspend in stain buffer (2% FBS in PBS). MOLP8 cells were washed and resuspended in stain buffer. Cells were added to wells of a 96 well V-bottom plate (3×10⁵ cells/well). A 1:4, 9-point, dose titration of test antibodies was diluted in stain buffer and added to cells to a final concentration ranging from 610 fM to 10 nM (a “no antibody” control was included as the ninth point (153fM), labeled as “secondary only”). Cells and antibodies were incubated for 30 min on ice and then washed in stain buffer. Cells were resuspended in 2 ug/ml allophycocyanin (APC) conjugated goat-anti human secondary antibody and incubated for 30 min on ice. Cells were then washed and resuspended in viability dye (according to the manufacturer's protocol) and incubated for 30 min on ice. Cells were then washed with stain buffer and resuspended in 2% PFA for 30 min on ice. After washing, cells were filtered and analyzed by flow cytometry to determine the geometric mean fluorescence intensity (gMFI), which was subsequently plotted using GraphPad Prism software. EC₅₀ values of the antibodies were determined from a 4-parameter logistic equation over a 9-point dose response curve (including secondary only control, representing the ninth point).

human 4-1BB on cells [4] = target: T1, human 4-1BB on cells; assay: flow cytometry on HEK293/h4-1BB cells, APC anti-human secondary
Protocol: as §1
HEK293 and HEK293/4-1BB cells were lifted with trypsin, washed and resuspended in stain buffer (2% FBS in PBS) and added to wells of a 96 well V-bottom plate (3×10⁵ cells/well). A 1:5, 9-point, dose titration of test antibodies was diluted in stain buffer and added to cells to a final concentration ranging from 1.3 pM to 100 nM (a “no antibody” control was included as the ninth point ([…]) labeled as “secondary only”). Cells and antibodies were incubated for 30 min on ice and then washed in stain buffer. Cells were resuspended in 2 ug/ml allophycocyanin (APC) conjugated goat-anti human secondary antibody and incubated for 30 min on ice. Cells were then washed and resuspended in viability dye (according to the manufacturer's protocol) and incubated for 30 min on ice. Cells were then washed with stain buffer and resuspended in 2% PFA for 30 min on ice. After washing, cells were filtered and analyzed by flow cytometry to determine the geometric mean fluorescence intensity (gMFI), which was subsequently plotted using GraphPad Prism software. EC₅₀ values of the antibodies were determined from a 4-parameter logistic equation over a 9-point dose response curve (including secondary only control).

human 4-1BB on cells [5] = target: T1, human 4-1BB on cells; assay: cell-based or functional assay; remark: listed apart in the source

T1 sequence (Q07011 24-255): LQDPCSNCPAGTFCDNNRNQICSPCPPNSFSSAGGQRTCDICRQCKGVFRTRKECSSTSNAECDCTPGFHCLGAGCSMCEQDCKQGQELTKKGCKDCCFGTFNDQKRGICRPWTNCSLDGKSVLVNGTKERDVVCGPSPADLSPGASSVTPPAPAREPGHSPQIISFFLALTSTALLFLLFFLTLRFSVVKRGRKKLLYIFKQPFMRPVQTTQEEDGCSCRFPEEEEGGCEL

B1: REGN7150 (bispecific antibody, human IgG4 S228P, kappa)
heavy 1: QVQLVQSGAEVKKPGSSVKVSCKASGGPFRSSSFSWVRQAPGQGLEWMGGIIPILGKTNYAQKFQGRITIVTDESTTTVYMELSSLRSEDTAVFYCVRGSSLFDYWGQGTLVTVSSASTKGPSVFPLAPCSRSTSESTAALGCLVKDYFPEPVTVSWNSGALTSGVHTFPAVLQSSGLYSLSSVVTVPSSSLGTKTYTCNVDHKPSNTKVDKRVESKYGPPCPPCPAPPVAGPSVFLFPPKPKDTLMISRTPEVTCVVVDVSQEDPEVQFNWYVDGVEVHNAKTKPREEQFNSTYRVVSVLTVLHQDWLNGKEYKCKVSNKGLPSSIEKTISKAKGQPREPQVYTLPPSQEEMTKNQVSLTCLVKGFYPSDIAVEWESNGQPENNYKTTPPVLDSDGSFFLYSRLTVDKSRWQEGNVFSCSVMHEALHNHYTQKSLSLSLGK
heavy 2: QVQLVQSGAEVKKPGASVKVSCKASAYTFTSYGFSWVRQAPGQGLEWMGWISTSNGYTNYAQKIQDRVTMTTDTSTSTAYMELRSLRSDDTAVYYCASLSNWVSFFDYWGQGTLVTVSSASTKGPSVFPLAPCSRSTSESTAALGCLVKDYFPEPVTVSWNSGALTSGVHTFPAVLQSSGLYSLSSVVTVPSSSLGTKTYTCNVDHKPSNTKVDKRVESKYGPPCPPCPAPPVAGPSVFLFPPKPKDTLMISRTPEVTCVVVDVSQEDPEVQFNWYVDGVEVHNAKTKPREEQFNSTYRVVSVLTVLHQDWLNGKEYKCKVSNKGLPSSIEKTISKAKGQPREPQVYTLPPSQEEMTKNQVSLTCLVKGFYPSDIAVEWESNGQPENNYKTTPPVLDSDGSFFLYSRLTVDKSRWQEGNVFSCSVMHEALHNRFTQKSLSLSPGK
light: not shown
notes: 1+1 format control, hIgG4P-PVA, common 3-20 light chain; also called CD38x4-1BB (1 + 1); 26871P2 x 25921P
- EC50 of IL-2 release, T cells + NALM-6 (human 4-1BB on cells [1]): 0.108 nM
- MAX IL-2 release, T cells + HEK293/CD20 + REGN2281 (human 4-1BB on cells [1]): 63 pg/mL
- MAX IL-2 release, T cells + HEK293/CD20/CD38 + REGN2281 (human 4-1BB on cells [1]): 593 pg/mL
- MAX IL-2 release, T cells + MOLP-8 + IsoC (human 4-1BB on cells [1]): 48 pg/mL
- MAX IL-2 release, T cells + MOLP-8 + REGN5458 (human 4-1BB on cells [1]): 32 pg/mL
- MAX IL-2 release, T cells + NALM-6 (human 4-1BB on cells [1]): 122 pg/mL
- EC50 of IFNγ release, T cells + HEK293/CD20/CD38 + REGN2281 (human 4-1BB on cells [2]): 0.78 nM
- EC50 of IFNγ release, T cells + MOLP-8 + REGN5458 (human 4-1BB on cells [2]): 43.8 nM
- MAX IFNγ release, T cells + HEK293/CD20 + REGN2281 (human 4-1BB on cells [2]): 1840 pg/mL
- MAX IFNγ release, T cells + HEK293/CD20/CD38 + REGN2281 (human 4-1BB on cells [2]): 3950 pg/mL
- MAX IFNγ release, T cells + MOLP-8 + IsoC (human 4-1BB on cells [2]): 56 pg/mL
- MAX IFNγ release, T cells + MOLP-8 + REGN5458 (human 4-1BB on cells [2]): 1300 pg/mL
- MAX IFNγ release, T cells + NALM-6 (human 4-1BB on cells [2]): 620 pg/mL
- MAX gMFI [3]: 210000 gMFI
- EC50 (human 4-1BB on cells [4]): 2.86 nM
- MAX gMFI (human 4-1BB on cells [4]): 2.4e+06 gMFI
- EC50 of IL-2 release, T cells + HEK293/CD20/CD38 + REGN1979 (human 4-1BB on cells [5]): ~0.1 nM
- EC50 of IL-2 release, T cells + MOLP-8 + REGN5458 (human 4-1BB on cells [5]): 63.4 nM
- MAX IL-2 release, T cells + HEK293/CD20 + REGN1979 (human 4-1BB on cells [5]): 182 pg/mL
- MAX IL-2 release, T cells + HEK293/CD20/CD38 + IsoC (human 4-1BB on cells [5]): 12 pg/mL
- MAX IL-2 release, T cells + HEK293/CD20/CD38 + REGN1979 (human 4-1BB on cells [5]): 1300 pg/mL
- MAX IL-2 release, T cells + MOLP-8 + IsoC (human 4-1BB on cells [5]): 163 pg/mL
- MAX IL-2 release, T cells + MOLP-8 + REGN5458 (human 4-1BB on cells [5]): 308 pg/mL
